Reference: the supplement of paper PMC6757056
± gives the standard deviation of the averaged measurements.

B1: library; a variant is named by its letters at N, in order (parent)
chain: GCUGUCACCGGUGCUUGGUACGUUAUAUUCAGCCGGUCUGAUGAGUCUNNNNNNAGACGAAACAGC

Experiments:
(6R,S)-folinic acid [1] = variants of: B1; test: normalized RNA/DNA level without ligand (relative to sTRSVctl = 100) (log10 (% of sTRSVctl)); HEK293T overexpressing SLC46A1; higher = less ribozyme self-cleavage, higher mRNA level; conditions: without (6R,S)-folinic acid; ligand present: no
Outline: (§1)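 HEK293T cells received ligand, where used, 1 h before being transfected with 4 µg per 6-well well of library plasmids encoding reporter-linked ribozyme switches. After 72 h, RNA was extracted with EDTA and sequenced. RNA level was derived from RNA reads per DNA read, normalized to a spiked-in non-cleaving sequence or the top sequences, then scaled and log-transformed. Values were ×100 then log10, the top set was 25 sequences, and the minimum was 100 DNA reads.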

(6R,S)-folinic acid [2] = variants of: B1; test: normalized RNA/DNA level with ligand (relative to sTRSVctl = 100) (log10 (% of sTRSVctl)); HEK293T overexpressing SLC46A1; ligand concentration (+) RNA-Seq: 6 mM; higher = less ribozyme self-cleavage, higher mRNA level; conditions: with (6R,S)-folinic acid; ligand present: yes
Outline: as §1

## CGAAUG
(6R,S)-folinic acid [1]
  normalized RNA/DNA level without ligand (log10): 2.0224 ± 0.0012
(6R,S)-folinic acid [2]
  normalized RNA/DNA level with ligand (log10): 2.034 ± 0.012

## CGAAUU
(6R,S)-folinic acid [1]
  normalized RNA/DNA level without ligand (log10): 2 ± 0.026
(6R,S)-folinic acid [2]
  normalized RNA/DNA level with ligand (log10): 2.01 ± 0.037

## AGAUUG
(6R,S)-folinic acid [1]
  normalized RNA/DNA level without ligand (log10): 1.89 ± 0.014
(6R,S)-folinic acid [2]
  normalized RNA/DNA level with ligand (log10): 2.004 ± 0.018

## AGAUUU
(6R,S)-folinic acid [1]
  normalized RNA/DNA level without ligand (log10): 2.0581 ± 0.0011
(6R,S)-folinic acid [2]
  normalized RNA/DNA level with ligand (log10): 2.04 ± 0.024

## UGCAAG
(6R,S)-folinic acid [1]
  normalized RNA/DNA level without ligand (log10): 1.778 ± 0.01
(6R,S)-folinic acid [2]
  normalized RNA/DNA level with ligand (log10): 1.96 ± 0.029

## UGCAAC
(6R,S)-folinic acid [1]
  normalized RNA/DNA level without ligand (log10): 1.95 ± 0.0091
(6R,S)-folinic acid [2]
  normalized RNA/DNA level with ligand (log10): 1.99 ± 0.029

## CGACAA
(6R,S)-folinic acid [1]
  normalized RNA/DNA level without ligand (log10): 1.945 ± 0.013
(6R,S)-folinic acid [2]
  normalized RNA/DNA level with ligand (log10): 1.96 ± 0.029

## CGACAU
(6R,S)-folinic acid [1]
  normalized RNA/DNA level without ligand (log10): 2.006 ± 0.006
(6R,S)-folinic acid [2]
  normalized RNA/DNA level with ligand (log10): 2.02 ± 0.044

## CGACAC
(6R,S)-folinic acid [1]
  normalized RNA/DNA level without ligand (log10): 2.026 ± 0.012
(6R,S)-folinic acid [2]
  normalized RNA/DNA level with ligand (log10): 2 ± 0.037

## CGACAG
(6R,S)-folinic acid [1]
  normalized RNA/DNA level without ligand (log10): 1.95 ± 0.031
(6R,S)-folinic acid [2]
  normalized RNA/DNA level with ligand (log10): 1.972 ± 0.018

## GGAUUA
(6R,S)-folinic acid [1]
  normalized RNA/DNA level without ligand (log10): 2.014 ± 0.0063
(6R,S)-folinic acid [2]
  normalized RNA/DNA level with ligand (log10): 2.0315 ± 0.0011

## GGAUUG
(6R,S)-folinic acid [1]
  normalized RNA/DNA level without ligand (log10): 1.996 ± 0.0084
(6R,S)-folinic acid [2]
  normalized RNA/DNA level with ligand (log10): 2.05 ± 0.053

## CGCCGA
(6R,S)-folinic acid [1]
  normalized RNA/DNA level without ligand (log10): 2.027 ± 0.0027
(6R,S)-folinic acid [2]
  normalized RNA/DNA level with ligand (log10): 2.08 ± 0.044

## CGCAGU
(6R,S)-folinic acid [1]
  normalized RNA/DNA level without ligand (log10): 2.037 ± 0.015
(6R,S)-folinic acid [2]
  normalized RNA/DNA level with ligand (log10): 2.04 ± 0.049

## CGCAGA
(6R,S)-folinic acid [1]
  normalized RNA/DNA level without ligand (log10): 2.039 ± 0.0068
(6R,S)-folinic acid [2]
  normalized RNA/DNA level with ligand (log10): 2.051 ± 0.015

## CGCAGG
(6R,S)-folinic acid [1]
  normalized RNA/DNA level without ligand (log10): 1.953 ± 0.012
(6R,S)-folinic acid [2]
  normalized RNA/DNA level with ligand (log10): 2.03 ± 0.039

## AGACGG
(6R,S)-folinic acid [1]
  normalized RNA/DNA level without ligand (log10): 1.934 ± 0.011
(6R,S)-folinic acid [2]
  normalized RNA/DNA level with ligand (log10): 2.01 ± 0.027

## AGACGU
(6R,S)-folinic acid [1]
  normalized RNA/DNA level without ligand (log10): 1.976 ± 0.0062
(6R,S)-folinic acid [2]
  normalized RNA/DNA level with ligand (log10): 2.01 ± 0.026

## CGCAUC
(6R,S)-folinic acid [1]
  normalized RNA/DNA level without ligand (log10): 2.08 ± 0.021
(6R,S)-folinic acid [2]
  normalized RNA/DNA level with ligand (log10): 1.97 ± 0.036

## CGCAUG
(6R,S)-folinic acid [1]
  normalized RNA/DNA level without ligand (log10): 2.01 ± 0.019
(6R,S)-folinic acid [2]
  normalized RNA/DNA level with ligand (log10): 2.01 ± 0.022

## UGCCCG
(6R,S)-folinic acid [1]
  normalized RNA/DNA level without ligand (log10): 1.95 ± 0.022
(6R,S)-folinic acid [2]
  normalized RNA/DNA level with ligand (log10): 2.01 ± 0.07

## UGCCCU
(6R,S)-folinic acid [1]
  normalized RNA/DNA level without ligand (log10): 2.061 ± 0.0087
(6R,S)-folinic acid [2]
  normalized RNA/DNA level with ligand (log10): 2.06 ± 0.043

## UGCCCA
(6R,S)-folinic acid [1]
  normalized RNA/DNA level without ligand (log10): 2.007 ± 0.0092
(6R,S)-folinic acid [2]
  normalized RNA/DNA level with ligand (log10): 1.99 ± 0.018

## UGCCCC
(6R,S)-folinic acid [1]
  normalized RNA/DNA level without ligand (log10): 2.03 ± 0.04
(6R,S)-folinic acid [2]
  normalized RNA/DNA level with ligand (log10): 2.01 ± 0.07

## UGCCAU
(6R,S)-folinic acid [1]
  normalized RNA/DNA level without ligand (log10): 1.982 ± 0.0048
(6R,S)-folinic acid [2]
  normalized RNA/DNA level with ligand (log10): 2 ± 0.021

## UGCCAG
(6R,S)-folinic acid [1]
  normalized RNA/DNA level without ligand (log10): 1.812 ± 0.0093
(6R,S)-folinic acid [2]
  normalized RNA/DNA level with ligand (log10): 1.9581 ± 0.00078

## AGAGUA
(6R,S)-folinic acid [1]
  normalized RNA/DNA level without ligand (log10): 1.94 ± 0.0059
(6R,S)-folinic acid [2]
  normalized RNA/DNA level with ligand (log10): 2.01 ± 0.033

## AGAGUU
(6R,S)-folinic acid [1]
  normalized RNA/DNA level without ligand (log10): 2.002 ± 0.0079
(6R,S)-folinic acid [2]
  normalized RNA/DNA level with ligand (log10): 2.011 ± 0.0021

## AGAGUC
(6R,S)-folinic acid [1]
  normalized RNA/DNA level without ligand (log10): 2.059 ± 0.0045
(6R,S)-folinic acid [2]
  normalized RNA/DNA level with ligand (log10): 2.02 ± 0.034

## AGAGUG
(6R,S)-folinic acid [1]
  normalized RNA/DNA level without ligand (log10): 1.71 ± 0.035
(6R,S)-folinic acid [2]
  normalized RNA/DNA level with ligand (log10): 1.98 ± 0.039

## GGAGGG
(6R,S)-folinic acid [1]
  normalized RNA/DNA level without ligand (log10): 1.98 ± 0.028
(6R,S)-folinic acid [2]
  normalized RNA/DNA level with ligand (log10): 2.04 ± 0.046

## GGAGGA
(6R,S)-folinic acid [1]
  normalized RNA/DNA level without ligand (log10): 1.975 ± 0.0041
(6R,S)-folinic acid [2]
  normalized RNA/DNA level with ligand (log10): 2.01 ± 0.046

## CGCCCA
(6R,S)-folinic acid [1]
  normalized RNA/DNA level without ligand (log10): 2.068 ± 0.0022
(6R,S)-folinic acid [2]
  normalized RNA/DNA level with ligand (log10): 2.06 ± 0.033

## CGCCCU
(6R,S)-folinic acid [1]
  normalized RNA/DNA level without ligand (log10): 2.09 ± 0.04
(6R,S)-folinic acid [2]
  normalized RNA/DNA level with ligand (log10): 2.092 ± 0.017

## CGCCCG
(6R,S)-folinic acid [1]
  normalized RNA/DNA level without ligand (log10): 2.03 ± 0.029
(6R,S)-folinic acid [2]
  normalized RNA/DNA level with ligand (log10): 2.031 ± 0.0094

## CGCCCC
(6R,S)-folinic acid [1]
  normalized RNA/DNA level without ligand (log10): 2.082 ± 0.017
(6R,S)-folinic acid [2]
  normalized RNA/DNA level with ligand (log10): 2.04 ± 0.057

## GGACCA
(6R,S)-folinic acid [1]
  normalized RNA/DNA level without ligand (log10): 2.054 ± 0.017
(6R,S)-folinic acid [2]
  normalized RNA/DNA level with ligand (log10): 2.02 ± 0.029

## GGACCC
(6R,S)-folinic acid [1]
  normalized RNA/DNA level without ligand (log10): 2.045 ± 0.019
(6R,S)-folinic acid [2]
  normalized RNA/DNA level with ligand (log10): 2.027 ± 0.015

## GGACCU
(6R,S)-folinic acid [1]
  normalized RNA/DNA level without ligand (log10): 2.062 ± 0.0094
(6R,S)-folinic acid [2]
  normalized RNA/DNA level with ligand (log10): 2.02 ± 0.033

## UGACAU
(6R,S)-folinic acid [1]
  normalized RNA/DNA level without ligand (log10): 1.9505 ± 0.00041
(6R,S)-folinic acid [2]
  normalized RNA/DNA level with ligand (log10): 1.99 ± 0.05

## UGACAC
(6R,S)-folinic acid [1]
  normalized RNA/DNA level without ligand (log10): 2.002 ± 0.0083
(6R,S)-folinic acid [2]
  normalized RNA/DNA level with ligand (log10): 2.008 ± 0.0047

## GGCACG
(6R,S)-folinic acid [1]
  normalized RNA/DNA level without ligand (log10): 2.047 ± 0.014
(6R,S)-folinic acid [2]
  normalized RNA/DNA level with ligand (log10): 2.03 ± 0.038

## GGCACA
(6R,S)-folinic acid [1]
  normalized RNA/DNA level without ligand (log10): 2.085 ± 0.009
(6R,S)-folinic acid [2]
  normalized RNA/DNA level with ligand (log10): 2.03 ± 0.031

## UGAGUU
(6R,S)-folinic acid [1]
  normalized RNA/DNA level without ligand (log10): 1.943 ± 0.0073
(6R,S)-folinic acid [2]
  normalized RNA/DNA level with ligand (log10): 1.99 ± 0.035

## UGAGUC
(6R,S)-folinic acid [1]
  normalized RNA/DNA level without ligand (log10): 2.011 ± 0.012
(6R,S)-folinic acid [2]
  normalized RNA/DNA level with ligand (log10): 2 ± 0.049

## CGAGUC
(6R,S)-folinic acid [1]
  normalized RNA/DNA level without ligand (log10): 2.053 ± 0.0089
(6R,S)-folinic acid [2]
  normalized RNA/DNA level with ligand (log10): 2.037 ± 0.0081

## CGAGUA
(6R,S)-folinic acid [1]
  normalized RNA/DNA level without ligand (log10): 1.965 ± 0.0014
(6R,S)-folinic acid [2]
  normalized RNA/DNA level with ligand (log10): 2 ± 0.04

## UGACGU
(6R,S)-folinic acid [1]
  normalized RNA/DNA level without ligand (log10): 1.97 ± 0.03
(6R,S)-folinic acid [2]
  normalized RNA/DNA level with ligand (log10): 2.02 ± 0.023

## AGAUAC
(6R,S)-folinic acid [1]
  normalized RNA/DNA level without ligand (log10): 1.983 ± 0.0026
(6R,S)-folinic acid [2]
  normalized RNA/DNA level with ligand (log10): 2.022 ± 0.02

## AGAUAG
(6R,S)-folinic acid [1]
  normalized RNA/DNA level without ligand (log10): 1.9299 ± 0.00079
(6R,S)-folinic acid [2]
  normalized RNA/DNA level with ligand (log10): 2.01 ± 0.041

## AGAUAU
(6R,S)-folinic acid [1]
  normalized RNA/DNA level without ligand (log10): 1.97 ± 0.011
(6R,S)-folinic acid [2]
  normalized RNA/DNA level with ligand (log10): 2.04 ± 0.038

## AGAAUC
(6R,S)-folinic acid [1]
  normalized RNA/DNA level without ligand (log10): 2.0639 ± 0.001
(6R,S)-folinic acid [2]
  normalized RNA/DNA level with ligand (log10): 2.05 ± 0.033

## AGAAUA
(6R,S)-folinic acid [1]
  normalized RNA/DNA level without ligand (log10): 1.9881 ± 0.00025
(6R,S)-folinic acid [2]
  normalized RNA/DNA level with ligand (log10): 2.02 ± 0.037

## AGAAUU
(6R,S)-folinic acid [1]
  normalized RNA/DNA level without ligand (log10): 2.005 ± 0.02
(6R,S)-folinic acid [2]
  normalized RNA/DNA level with ligand (log10): 2.021 ± 0.008

## AGAAUG
(6R,S)-folinic acid [1]
  normalized RNA/DNA level without ligand (log10): 1.893 ± 0.0045
(6R,S)-folinic acid [2]
  normalized RNA/DNA level with ligand (log10): 2 ± 0.039

## AGCAGC
(6R,S)-folinic acid [1]
  normalized RNA/DNA level without ligand (log10): 2.028 ± 0.0032
(6R,S)-folinic acid [2]
  normalized RNA/DNA level with ligand (log10): 2.03 ± 0.054

## AGCAGG
(6R,S)-folinic acid [1]
  normalized RNA/DNA level without ligand (log10): 1.944 ± 0.0028
(6R,S)-folinic acid [2]
  normalized RNA/DNA level with ligand (log10): 2.01 ± 0.042

## AGCAGU
(6R,S)-folinic acid [1]
  normalized RNA/DNA level without ligand (log10): 1.991 ± 0.0037
(6R,S)-folinic acid [2]
  normalized RNA/DNA level with ligand (log10): 2.01 ± 0.028
